# Data from the nanobody polyreactivity screen of Harvey et al. (2022).
# Assay: yeast display, Sf9 membrane polyspecificity reagent, FACS + sequencing; frameworks hold sequencing errors
# Method in brief: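 A nanobody's polyreactivity label depends on the gate it was sorted from. Yeast display cells were stained with 10% biotinylated, detergent-solubilized Sf9 membrane reagent for 1 hour at 4 °C, enriched on streptavidin microbeads and sorted by FACS. The low and high (top ~1%) gates were set on anti-HA fluorescence for expression and streptavidin fluorescence for reagent binding.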
row,Sequence,polyreactivity (PSR sort gate)
1,QVQLVESGGGLVQAGRSLRLSCAASGRIFRYNTMGWYRQAPGKERELVARINRGGSTNYADSVKGRFTISRDNAKNTVYLQMNSLKAEDTAVYYCNARYTARHYPFSNFDYWGQGTQVTVSS,high polyreactivity
2,QVQLVESGGGLVQAGRSLRLSCAASGRIFSTNAMGRYRQAPGKERELVAAITRSSSTYYAYSVKGRFTISLDNAKNTVYLQINSLKPEDTAGYYCAASRFQYKSTQFYYWGQATQVTVSS,high polyreactivity
3,QVQLVESGGGLVQAGRSLRLSCAASGSIFSTNAMGWYTQAQGKEREFVAAIDITNYEDSVKGRFTISRDNSKNTVDFQMNSVIPEDTAVYSCIADTYSVVREGDYWGQGTQVTVSS,low polyreactivity
4,QVQLVESGGGLVQAGRSLRLSCAASGSIISVYAMGLYRQAPGKERELVADITGTGDTYYADSVKGRFTISRDNAKNTVYLQMNSLIPEDTAVYYCNTVYELYYDPSVTEDYWGQGTQVTVSS,low polyreactivity
5,QVQLVESGGGLVQAGRSLRLSCAASGSILSINGMGWYRQAPGKERELVATIDGSEGSTFYADSVKGRFTISRDNAKNTFYLQLNSVKPEDTAVYYCAAENFWQTKEYDYWGQGKQVTVSS,low polyreactivity
6,QVQLVESGGGLVQAGRSLRLSCAASGSTFDGYAMGWYRQAPGKERELVAAISYSGSSTYYADSVKGRFTNSRDNAKNTVYLQMNSLKPEDTAVYYCAVDDTHPFGPDGGGDYWGQGTQVTVSS,low polyreactivity
7,QVQLVESGGGLVQAGRSLRLSCAASGSTFHPYAMGWYRQAPGKERELVAAINSGDNTYYADSVKGRFTISRDNAKNTVYLQMNSLKPEDTAVYYCAVRYWDESHTEYDYWGQGTQVTVSS,low polyreactivity
8,QVQLVESGGGLVQAGRSLRLSCAASGSTFKYNAMGWYRQAPGKERELVASISRSGGSTYYADSVKGRFTISRDNAKNTVYLQMNSLKPEDTAGYYCNVRRFVHYEYWGQGSQVTVSS,high polyreactivity
9,QVQLVESGGGLVQAGRSLRLSCAASGSTFSHYAMGWYRQAPGKERELFATITGTGVRTYYADSVKGRFTISRDNAKNTVYLQMNSLKPEATAVYFCAVPPSIRGAQAQPWMDYWGQGTQVTVSS,low polyreactivity
10,QVQLVESGGGLVQAGRSLRLSCAASRSIFARYAMAWYRQAPGKERELVAAINSTVSTNYADSVKGRFTISRENAKNTVYLQMNSLKPEDTAVSYCAVDMVRGGLDSWGQGTQVTVSS,low polyreactivity
11,QVQLVESGGGLVQAGRSLRLSCAASVFTFYHYAMGWYRQAPGKVRELVAAISNSGVSTYYADSVKGRFTISRDNAKITVYLQLNSLKPEDTAVYYCNAVYQSYHISGDDYWGQGTQVTVSS,high polyreactivity
12,QVQLVESGGGLVQAGRSLRLSCASSGRIFSSYAKGWYRQAPGKERELVAAITSGGSTDYADSVKGRFTISRDNAKNTVYLQIYRLNPEDTAVYYCAKAFLPPWTYSPYYLFYYWGQGTQVTVSS,low polyreactivity
13,QVQLVESGGGLVQAGRSLRLSCGASGFTFGLYAMGWYRQATGKERELVAAITSSGRRTYYADSVKGRYTISRDKAKNTVSLEMNCLKPEDTAVYYFAKQAYDQSPYNYWGQGTQVTVSS,high polyreactivity
14,QVQLVESGGGLVQAGRSLRLTCAASGRIFTPYAMGWYRQAPGTERELVATITLSGGSTYYADSVKGRFTISRDYAKNTVYLQMNSLKPEDTAVYYCNKDTHLHVVDYRTGYDCWGQGTQVTVSS,low polyreactivity
15,QVQLVESGGGLVQAGRSLRLTCAASGRTFRAYTMGWYRQAPGKERDLVAAITSSGGGTYYADSVKGRFTISRDNAKNTVYLQMNSLKPEDTAVYYCNDRKQSYPDKYRRDYWGQGTQVTVSS,low polyreactivity
16,QVQLVESGGGLVQAGSSLRLSCAASGRTLIYNAMGWYRQAPGKERELVASINRRGDSTYYADSVKGRFTISRDNAKNTVYLQMNSLKPEDTAVYYCAKVLYGGYPENRYFVGWGRDYWGQGTQVTVSS,high polyreactivity
